Tested on: MS2 coat protein
Assay: apparent KD of MS2 coat protein; designed switch direction (-1 OFF switch, 1 ON switch): 1; higher = weaker reporter binding
How it was run: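 The apparent KD reported per design is the median over clusters of curve fits to normalised cluster fluorescence. The RNA switches were transcribed on Illumina chips by stalled E. coli RNA polymerase. SNAP-549-labelled MS2 coat protein was titrated from 0.7 or 1.5 nM, doubling up to 3 µM, in Tris-HCl pH 7.5 buffer containing KCl, MgCl2, BSA, DTT, tRNA and Tween-20, with no input, 200 uM small-molecule ligand, or an oligonucleotide input.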

[1] = input ligand: microRNA oligo, concentration not stated
[2] = Eterna round: R95, input ligand: microRNA oligo, concentration not stated
[3] = Eterna round: R95, input ligand: FMN 200 uM
[4] = Eterna round: R95, input ligand: none

Row | Sequence | apparent KD of MS2 coat protein [1] | apparent KD of MS2 coat protein [2] | apparent KD of MS2 coat protein [3] | apparent KD of MS2 coat protein [4] | apparent KD of MS2 coat protein (input ligand: FMN 200 uM) | apparent KD of MS2 coat protein (input ligand: none)
1 | GAGUGUGAAUAAGGAUAUAUGAGAGAGUGAGUAAUAGAAGGUAUACAAACAUGAGACAUGAGGAUCACCCAUGUAUCACCCAUG [Something that seems to work] (Eterna round: R96, puzzle: Same State NG 1) | 14.5 nM | – | – | – | – | –
2 | AUUAAACAUGAGGAUCACCCAUGUAAUAAUAUGGGAGGAUAUGCGAAUUUAAUUAUUUAAGCAGAAGGCCUAAUUA [Mat - Same State 1 - D100] (puzzle: Same State 1) | – | 56 nM | – | – | – | –
3 | AGAGAACAUGAGGAUCACCCAUGUGGGAGAAACAUAGGAUAUAGGAGAGAGAGGGAGGAGCUAGAAGGAUGAUGGA [JR_SS1_Sub082] (puzzle: Same State 1) | – | 91.1 nM | 80.5 nM | 105 nM | – | –
4 | AAACGGCCCAACGAAGGGCCACAUGAGGAUCACCCAUGUACAUAGGAUAUCACGCCAACAAAGCGUGAGAAGGGUGAUUAAAAC [Lezaer] (Eterna round: R96, puzzle: Same State NG 3) | 11.6 nM | – | – | – | 270 nM | 163 nM
5 | AUCCUACAUGAGGAUCACCCAUGUGAAGCCUCAAUAGGAUAUGCGUGUGCCUUGGCGCAUGCAGAAGGAUUGAAGC [JL Aveso mod 3] (puzzle: Same State 1) | – | 311 nM | 91 nM | 967 nM | – | –
6 | CGUCCAGCCUGAGCUGGACAAAAGCAUGUACAUGAGGAUCACCCAUGUUCAUGUACAAGCUUUUUGCUCGUCUUACC [salish99_208a_r3_094x] (puzzle: Sensor for hsa-mir-208a) | – | 15.9 nM | 638 nM | 1010 nM | – | –
7 | UGGCUCAGACGAGGAUAUGAUCAUGGCGCUUCGGCGCAUACAUGAGGAUCACCCAUGUAAAGUGAUCAGAAGGCGUCUGAGCCU [SSNG2/7-A3] (Eterna round: R96, puzzle: Same State NG 2) | 11.1 nM | – | – | – | 14.8 nM | 15 nM
8 | AAGAAACAUGAGGAUCACCCAUGUGAUAAUAUGGGAGGAUAUACAAAGACGAAAGUCGAAGUAGAAGGCCUAUGAA [Garnet 43] (Eterna round: R96, puzzle: Same State 1) | 50.9 nM | – | – | – | 46.4 nM | 68.7 nM
9 | AAUCGUUUGAUAGGAUAUCGCUAUACAUGAGGAUCACCCAUGUUUACCACACUGGUUUUUCGUACCGAGAAGGAUUCUGAUGAU [JL JR sub007 mod 9] (Eterna round: R96, puzzle: Same State NG 2) | 33.1 nM | – | – | – | 40.2 nM | 43.5 nM
10 | UUGAAGAAUUAAGGAUAUCGAGUCAAGAUGUUAAACAUGAGGAUCACCCAUGUGGGUUGCGGUAUCGAGAAGGUAAAUUACAAG [JL SSNG2 1.41] (Eterna round: R96, puzzle: Same State NG 2) | 26.9 nM | – | – | – | 34.8 nM | 34.9 nM
11 | AUGAAGAAUUAAGGAUAUUGAUUACAUAUGUUUAACAUGAGGAUCACCCAUGUGGGUUGCGGUAUCGAGAAGGUAAAAUAAAAG [Mat - same State NG 2 - JL mod - D89] (Eterna round: R96, puzzle: Same State NG 2) | 193 nM | – | – | – | 252 nM | 213 nM
12 | UUAACAUGAGGAUCACCCAUGUAUAGGGAGUUUGCAAUUUGACAGGAUAUUGAAGAUUUAUAUAGCAAGAAGGGUCGUUAGUCU [JR_SSNG3_Sub005] (Eterna round: R96, puzzle: Same State NG 3) | 44.9 nM | – | – | – | 38 nM | 53.6 nM
13 | GCGAAAGCGGUAGGAUAUCUAGGAUAUGGGAAAGACUAAGUCUGUAGGUCACCUAACCCAGAAGGAGAGAAGGACAGGGAAACC [pwkr ssNG2 2FMN + F9.34] (Eterna round: R96, puzzle: Same State NG 2) | 28.9 nM | – | – | – | 38.8 nM | 22.1 nM
14 | UACUAUCUAUCUCAGGAUAUCAUGUCAAAGACAUGAGGAUCACCCAUGUACCAGGAAACUGGUUAUGAGAAGGGAGAUAGAUAGU [Mat - Same State 2 - Mod - D40] (puzzle: Same State 2) | – | 53.2 nM | 160 nM | 249 nM | – | –
15 | UUUAAACAUGAGGAUCACCCAUGUUUUUUCAUGGGAGGAUAUCUGAGUUAAUUAUAUUAAGGAGAAGGCCUAUUUU [× ×•×ª×• ×ž×“×™× ×” × ×—×ª-01] (puzzle: Same State 1) | – | 38.6 nM | 102 nM | 75.9 nM | – | –
16 | UUAAAGAAGUAAGGAUAUACAUGAGGAUCACUCGUAGAAGGUACUAAACAUGAGGAUCACCCAUGUACCGGUCCGUAGACUGGA [Mat - Same State NG 1 - JL mod - D2] (Eterna round: R96, puzzle: Same State NG 1) | 248 nM | – | – | – | 960 nM | 483 nM

Row | Sequence | apparent KD of MS2 coat protein [1] | apparent KD of MS2 coat protein [2] | apparent KD of MS2 coat protein [3] | apparent KD of MS2 coat protein [4] | apparent KD of MS2 coat protein (input ligand: FMN 200 uM) | apparent KD of MS2 coat protein (input ligand: none)
17 | AAUUGUUUCUGAGGAUAUCAGUAGUAUGCCAAUUGAGAAGGCAGUACAUGAGGAUCACCCAUGUUGUGGUUUGAUAGAAUGAUA [JR_SSNG1_Sub002] (Eterna round: R96, puzzle: Same State NG 1) | 143 nM | – | – | – | 170 nM | 181 nM
18 | CUAUCUACAGGUGUCUUUGCUCGUUUUAUACAUGAGGAUCACCCAUGUUAUAGCCCGGUGCUUGCGCUGGGCUGAUU [JL ViennaUCT Tearor mod 7] (puzzle: Sensor for hsa-mir-208a) | – | 15.5 nM | 100 nM | 95.3 nM | – | –
19 | GGUCCAGCCUGAGCUGGACAAAAGCAUGUACAUGAGGAUCACCCAUGUCAUGUACAAGCUUUUUGCUCGUCUAAAGG [Mat - hsa-mir-208a - 92] (puzzle: Sensor for hsa-mir-208a) | – | 23.8 nM | 726 nM | 586 nM | – | –
20 | AGAGGAAGGGCAGGAUAUACGACGGAGGACGAGGUAGAAGGGUCCAUGUGAUAACAUGAGGAUCACCCAUGUACCGCGCGACGA [AK SSNG1-V2-18] (Eterna round: R96, puzzle: Same State NG 1) | 43.1 nM | – | – | – | 147 nM | 832 nM
21 | GUAGGACAUGAGGAUCACCCAUGUGGGAGGGAACGAGGAUAUGUGAUUAGCGAGGAGAGGACAGAAGGCGUGGUAG [JR_SS1_Sub024] (puzzle: Same State 1) | – | 35.4 nM | 55.2 nM | 50.8 nM | – | –
22 | AAUUAAGAUCAAGGAUAUCACGUCGAAUAGACGUGAGAAGGUGAUAAUUACAUGAGGAUCACCCAUGUAUAACAUGAAUUAAUU [SSNG1/9-B1] (Eterna round: R96, puzzle: Same State NG 1) | 24.8 nM | – | – | – | 30 nM | 38 nM
23 | AAGUUACUAUCUCAGGAUAUCAUGUCAAAGACAUGAGGAUCACCCAUGUACCAGGAAACUGGUUAUGAGAAGGGAGAUAGUAACU [Mat - Same State 2 - Mod - D54] (puzzle: Same State 2) | – | 204 nM | 156 nM | 819 nM | – | –
24 | UGGCUCAGACGAGGAUAUAUGUGAUCACAUGAGGAUCACCCAUGUCUCGAGCUUCGGCUCGAGACAUAGAAGGUGUCUGAGCCA [SSNG2/3-C2] (Eterna round: R96, puzzle: Same State NG 2) | 96.2 nM | – | – | – | 14.8 nM | 49.5 nM
25 | UAGUACAUGCUUUUUGCCCGUCUUAGAUAACAUGAGGAUCACCCAUGUAAGGUGAAAGUUAUAUAGUGGAGGAAGAU [JR_SHM208A_Sub055] (puzzle: Sensor for hsa-mir-208a) | – | 360 nM | 107 nM | 107 nM | – | –
26 | GGAAUAUUUACAGGAUAUGAUUUGUAAAUUCGAUCAGAAGGGUAGAUGUCUUACACGAUUUGUUACAUGAGGAUCACCCAUGUU [SameState NG1 #10] (Eterna round: R96, puzzle: Same State NG 1) | 81.9 nM | – | – | – | 31 nM | 86.3 nM
27 | AGGAAACAUGAGGAUCACCCAUGUAAAAAAGUGGGAGGAUAUACUAGAAGAAACAAAAUAGUAGAAGGCCUAAAAA [75%, Ex sub1, 32] (Eterna round: R96, puzzle: Same State 1) | 37.7 nM | – | – | – | 19.1 nM | 42.3 nM
28 | UGGUAACAUGAGGAUCACCCAUGUCAAAUGAAUCGAGGAUAUGGGAAUUAACAAUAUAAACUAGAAGGCGAAUUUG [Altered State 1-7 - Jieux - Same State 1] (puzzle: Same State 1) | – | 284 nM | 144 nM | 290 nM | – | –
29 | GUUACAUGAGGAUCACCCAUGUAUGUGUGGGAGUAAGUGUCUUAGGAUAUCUGUUAUUGAAUUUAAGAGAAGGAAGAUUGUUGU [JMF's solution 37] (Eterna round: R96, puzzle: Same State NG 3) | 59.5 nM | – | – | – | 102 nM | 100 nM
30 | UGAAUGGUGAUAGGAUAUACAUGAGGAAUCCUCGUAGAAGGAUCACGACAUGAGGAUCACCCAUGUAGCCGUCCGUAGACGGCG [salish99_SSNG1_r04_001] (Eterna round: R96, puzzle: Same State NG 1) | 38.9 nM | – | – | – | 302 nM | 238 nM
31 | GCCGCGUUUCGCGCCUACAUGAGGAUCACCCAUGUAUGUCGGCAGGAUAUCGUUUGCUUUGCAAACGAGAAGGGCUGUUGUGGC [salish99_SSNG3_R04_011] (Eterna round: R96, puzzle: Same State NG 3) | 9.04 nM | – | – | – | 13.4 nM | 14.4 nM

From the supplement of paper PMC9170038
